{"source": "patent US20090098074A1", "binders": {"B1": {"name": "KBD-B (SEQ ID No.: 166), keratin-binding domain B of human desmoplakin expressed from pQE30-KBD-B in E. coli (protein)", "chain": "MRGSHHHHHHGSACELEPHTGLLLLSVQKRSMSFQGIRQPVTVTELVDSGILRPSTVNELESGQISYDEVGERIKDFLQGSSCIAGIYNETTKQKLGIYEAMKIGLVRPGTALELLEAQAATGFIVDPVSNLRLPVEEAYKRGLVGIEFKEKLLSAERAVTGYNDPETGNIISLFQAMNKELIEKGHGIRLLEAQIATGGIIDPKESHRLPVDIAYKRGYFNEELSEILSDPSDDTKGFFDPNTEENLTYLQLKERCIKDEETGLCLLPLKEKKKQVQTSQKNTLRKRRVVIVDPETNKEMSVQEGVDLQPSLIS"}, "B2": {"name": "comparison Protein YaaD from B. subtilis (with His tag) (protein, UniProt P37527 1-294, looked up, not shown: small tags and cut ends)", "chain": "MAQTGTERVKRGMAEMQKGGVIMDVINAEQAKIAEEAGAVAVMALERVPADIRAAGGVARMADPTIVEEVMNAVSIPVMAKARIGHIVEARVLEAMGVDYIDESEVLTPADEEFHLNKNEYTVPFVCGCRDLGEATRRIAEGASMLRTKGEPGTGNIVEAVRHMRKVNAQVRKVVAMSEDELMTEAKNLGAPYELLLQIKKDGKLPVVNFAAGGVATPADAALMMQLGADGVFVGSGIFKSDNPAKFAKAIVEATTHFTDYKLIAELSKELGTAMKGIEISNLLPEQRMQERGW"}, "B3": {"name": "KBD-D (SEQ ID No.: 168), keratin-binding domain D, H. sapiens plakophilin 1a with N-terminal histidine anchor (protein)", "chain": "MRGSHHHHHHGSACELGTMNHSPLKTALAYECFQDQDNSTLALPSDQKMKTGTSGRQRVQEQVMMTVKRQKSKSSQSSTLSHSNRGSMYDGLADNYNYGTTSRSSYYSKFQAGNGSWGYPIYNGTLKREPDNRRFSSYSQMENWSRHYPRGSCNTTGAGSDICFMQKIKASRSEPDLYCDPRGTLRKGTLGSKGQKTTQNRYSFYSTCSGQKAIKKCPVRPPSCASKQDPVYIPPISCNKDLSFGHSRASSKICSEDIECSGLTIPKAVQYLSSQDEKYQAIGAYYIQHTCFQDESAKQQVYQLGGICKLVDLLRSPNQNVQQAAAGALRNLVFRSTTNKLETRRQNGIREAVSLLRRTGNAEIQKQLTGLLWNLSSTDELKEELIADALPVLADRVIIPFSGWCDGNSNMSREVVDPEVFFNATGCLRNLSSADAGRQTMRNYSGLIDSLMAYVQNCVAASRCDDKSVENCMCVLHNLSYRLDAEVPTRYRQLEYNARNAYTEKSSTGCFSNKSDKMMNNNYDCPLPEEETNPKGSGWLYHSDAIRTYLNLMGKSKKDATLEACAGALQNLTASKGLMSSGMSQLIGLKEKGLPQIARLLQSGNSDVVRSGASLLSNMSRHPLLHRVMGNQVFPEVTRLLTSHTGNTSNSEDILSSACYTVRNLMASQPQLAKQYFSSSMLNNIINLCRSSASPKAAEAARLLLSDMWSSKELQGVLRQQGFDRNMLGTLAGANSLRNFTSRF"}}, "key": {"[1]": {"biological_target": "human skin (skin keratin) (human)", "assay": "quantitative skin-binding test, after washing with 10% strength SDS; value standardized to the surface"}, "[2]": {"biological_target": "human hair (hair keratin) (human)", "assay": "quantitative hair-binding test; loss of A405 after 10% SDS relative to untreated hair"}, "[3]": {"biological_target": "human hair (hair keratin) (human)", "assay": "quantitative hair-binding test; DENATURED KBD-B on 5 mg human hair, anti-polyHistidine peroxidase conjugate, TMB"}, "[4]": {"biological_target": "human hair (hair keratin) (human)", "assay": "quantitative hair-binding test; renatured KBD-B on 5 mg human hair, anti-polyHistidine peroxidase conjugate, TMB"}, "[5]": {"biological_target": "human skin (skin keratin) (human)", "assay": "quantitative skin-binding test on human keratinocytes in microtiter plates, anti-His antibody/TMB; value standardized to the surface"}, "[6]": {"biological_target": "human skin (skin keratin) (human)", "assay": "quantitative skin-binding test; loss of A405 after 10% SDS relative to untreated skin"}, "[7]": {"biological_target": "human hair (hair keratin) (human)", "assay": "quantitative hair-binding test; His-tagged protein on 5 mg human hair, anti-polyHistidine peroxidase conjugate, TMB"}, "[8]": {"biological_target": "human hair (hair keratin) (human)", "assay": "quantitative hair-binding test, after washing with 10% strength SDS; value standardized to the surface"}, "[9]": {"biological_target": "human hair (hair keratin) (human)", "assay": "quantitative hair-binding test on 5 mg human hair, anti-polyHistidine peroxidase/TMB; value standardized to the surface"}}}
{"binder": "B1", "values": [{"measurement": "Absorption at 405 nm", "setting": "[1]", "result": 0.185}, {"measurement": "Relative absorption loss after 10% strength SDS treatment in %", "setting": "[2]", "result": 86, "unit": "%"}, {"measurement": "Absorption at 405 nm", "setting": "[3]", "result": 0.254}, {"measurement": "Absorption at 405 nm", "setting": "[4]", "result": 1.59}, {"measurement": "Absorption at 405 nm", "setting": "[5]", "result": 0.93}, {"measurement": "Relative absorption loss after 10% strength SDS treatment in %", "setting": "[6]", "result": 80, "unit": "%"}]}
{"binder": "B2", "values": [{"measurement": "Absorption at 405 nm", "setting": "[7]", "result": 0.088}]}
{"binder": "B3", "values": [{"measurement": "Absorption at 405 nm", "setting": "[1]", "result": 3.15}, {"measurement": "Relative absorption loss after 10% strength SDS treatment in %", "setting": "[2]", "result": 30, "unit": "%"}, {"measurement": "Absorption at 405 nm", "setting": "[8]", "result": 0.62}, {"measurement": "Absorption at 405 nm", "setting": "[9]", "result": 0.88}, {"measurement": "Absorption at 405 nm", "setting": "[5]", "result": 3.69}, {"measurement": "Relative absorption loss after 10% strength SDS treatment in %", "setting": "[6]", "result": 15, "unit": "%"}]}
